According to the DeepSol protein solubility set:

Test: soluble on expression in E. coli; label from the status in PepcDB or PDB records

Sequence: MGSDKIHHHHHHMKPDLSSHLVLGERPDGRTLITARWVLAWRDGGHALIPDGEIVVDRNEVLYAGPRFEGDVARRIDFGTALVSPGLIDLDALSDLDTYLLVHDNQPGWAKGRIWPRSYVESGPYEMYSAEELAFQKRFAFGLLLLNGITTAAPIASLYYRQWAETVAEFEAAADAAGDLGLRVFLSPAYRSGGMILEGPGRIEPAFDEPRGLQGLADAIDFIERNHGRHNGLVNGMLAPDRIETCTLHLLQRTMAAARDLDCRVRIHMAQGNLELETMRRLHGVSAPQWLADHGLMSERLIAPHGTYASPQDLQLYAQHGVSIAHSPLVSARMGSILNSFAACRSLGINIGMATDTAPPDMLMNLLVGLIACRIGEKTSDAVFSKDLFDAATLGGAKALGRRDLGRLAAGAKADIAVFRLDDVHMTPSVDPVTTLVVGGSGKVTQAVFVDGRLSMLDGKVAGIDMIAAREQAQQQYDGLIAKYPDRSWRHPPVGKIFSPSYPVWKIQ
- soluble on expression in E. coli: not soluble

Sequence: MGSDKIHHHHHHMSYLTEKLREEKVFKDPVHGYVHVSDKIIWDLIATKEFQRLRRIHQLGTTSLTFHGAEHSRFNHSLGVYEIVRQIIDVTFANEPQLDPEERMVALCAALLHDLGHGPFSHAFEKVFGTDHESYTQEIIIGDTEVNKILMRAGEEFPLKVAAIIKKNYPNQTLVKLISSQIDADRMDYLLRDAYYTGVSYGKFDLERILRVLRPSPDGNGVIVKYSGMHAVEDYIMSRYQMYQQVYFHPVSRSGEVLLWKILERAKKLYCAGYEFQATPIQVLPFFLNEVSLKDYIVLDDIVLMYYFSIWQEEEDPILSDLCSRFLNRRLLRYINYDPKEDAELYAELKGLLEKADIDPSYYLVIDSSSDLPYDYYLPGVGSGKDPIKLLMGNGELRELSTESPVVEAIGRERRTDIKLYYPLDFIESGHVEEAITERMIALIHAHSLKEK
- soluble on expression in E. coli: not soluble

Sequence: MRKLSTRPLPLGDGFFDSSSDSSESELSDKDDEDRYSDSTVSTLTSQDRRDTQGCQYPRSSELPISESPAPRARRARKQRSKRKSVKPPNTSSDDSSDDSDDSSSSSSSDDSVSSKSSTNSSDSSPCRCRDGLAEWEQRHGRRWHPYGRNGTWEPYRNRRRGIYDCENSPRETYSNGA
- soluble on expression in E. coli: not soluble

Sequence: MYGILCLSLRRIFQWHTYSMVRIHSLNTMNILTNLEFSFPILYSYETLNTMLRKQRRLYMPRTNYIDIMEKNHMEIPWHDYTNADSNALIANADLIEKASVIGRVGLIMLSCGTGAWRVRTSMNKLSKELGVTCTVDVGLMSIEFNCFDGNDCVSQSLSIANTGVNTSKLYRMEQFVDNFPNEEAHLTGEMIHKRLDEIEQIHTLYSPVKLG
- soluble on expression in E. coli: not soluble

Sequence: MSLSHSIKPWHEACSKLARTSKPEAFNVDTLFAQLADDTNDTFYTVDPRWITQNAQQFSGCFPGTVLYAMKANPLVHVLEALSQGGINHFDVASLAEVQTVHNTLPNAVQYLMNPVKSRHCLHEAYYRHGVRSFVLDSEEELSKLRDVLPERDSTISMFVRYAPSESTAVYDLRGKFGASPALATQLVHQVAASTDWSLGLSFHVGSQAIEDGPWLAALDDADAIVRDTAQHVRHLDIGGGFPGNYLNSMGNTPDLVGRVCEHIQTSPTLKDLNLICEAGRGLVYGGMSLFARVLSRREHSVFCGAGIFGGLLSAQQWLQFPARVWRDAAPYAGSAEATFNIFGPTCDSMDRLAFPYSLASDIREGDWLEFQSTGAYSVSLRTPFNGFYADRIISLPSEGHHHHHH
- soluble on expression in E. coli: soluble

Sequence: MSLSEKTFPSHARVVIVGGGVMGVGLAYHLAHEGWGHDTVLLEKAELTSGSTWHAAGQITHSTSSYGLGKCVDYNIGLYSGGLEAETGQAVTWHGCGSFRLAYTEDEMDWLRHTLSVGRSLGFNIDLVSPQRVAELHPFYNLDGVLGALHTPDDGHVDPTNVTMALAAGARAKGVRIIRRCRASNITQLASGEWQVETDQGTITCEHVVNAGGTYARQMGEWSGLQLPMTSMTHHYFVTENVPEFEALDRELPVIRDDKKVSGYIRMEQKRGLIGIYEKANPNAVWLDECPWDYENWLFDADYDRVMPWLEESLNRMPVLAERGITREVHGAISHPPDGNPLIGPAPGVRNYWCCCGTQIGIGWGPGLTRELARWMVHGAADISMRDYDPRRFGSYATKEWQVIKAKEDYCLRHEIPFPHFNRLAGRPVKPSPLYDRLKSKGAVFEEVYGHERPRWFAKAGIAQHDHYGFGRTPVHDVVGDECRAVREAAGIMDISAFTKVELSGPEAETLLDRLVANRLPRKTGGIALTHMLNAAGRIELETTVVRLASDRFYLVCAAFFEQRLLDHLDRHRGTADVTVTLRSNDWAALTLNGPRSRDILATCTDAPLDNAAFPWLTAQEITVAGHRLWAFRMSYAGELGWEFHMPRDAALAVYDALWAAGAPLGLADYGSFAMNAMRMEKGFKGAGELTNEVTLAEADVLRFARTDKAYIGREATLAPARRFVCAYLEIAPDGAHDGHGGEAVLLQGKVVGSTASVAYGHSCGKILAFAYVRPEANVAGTEVEVVIAGTPRPARILGAPAYDPEGLLPRTDAKGIITITTDPNSSSVDKLAAALEHHHHHH
- soluble on expression in E. coli: soluble

Sequence: MTSGLERLSNLLSKKDSVFVSDLLREAKVNELDETLSTTRLNHLIDKGYERITLQLDLGGESPGYLEKDKHYREADAALLNVIYPTNLSKINTRRKEQV
- soluble on expression in E. coli: not soluble

Sequence: EVQLQQSGAELARPGASVKMSCKASGYTFTSYTMHWVKQRPGQGLEWIGYINPSSGYSNYNQKFKDKATLTADKSSSTAYMQLSSLTSEDSAVYYCSRPVVRLGYNFDYWGQGSTLTVSSAKTTPPSVYPLAPGSAAQTNSMVTLGCLVKGYFPEPVTVTWNSGSLSSGVHTFPAVLQSDLYTLSSSVTVPSSTWPSETVTCNVAHPASSTKVDKKIVP
- soluble on expression in E. coli: soluble

Sequence: MGSDKIHHHHHHMLLYIHGFNSSPFSDKAVITARYMAEYHPSLTFHQPQLPNTPKAAMALLQSYVEAAQQANEPLNYIGSSLGGYFASYLAERYGGRAVLVNPAVKPFELFDEFMGPQFNPYTQEHYQVLPEHKREVAEFNTPVIRNPERFLVLLQTGDEVLDYREALHKYHHCQLRIESGGDHSFVGYERYLQTVSQFLHLP
- soluble on expression in E. coli: not soluble

Sequence: MSLKAPVDFEQEVAPLLSQRCVSCHSPNIKKGELSLAGPEDLLANGYVVPGDPAGSYLLEVVSPAGDDPAAMPKLGDALAEPEVALLRRWIEQGAVWPDGFVIREASKADRSWWSLQPLADIHPPEVAAAPAAWRQNPIDRFVWAKLSEANLKPNSPADRRTLIRRATFDLTGLPPTAEEIDTFVASDSPDAYPQLIDRMLASPRYGERWGRHWLDVIRFGESRGFERNQIITNLWPFRDYVIRSINEDKPFDQFIREHLAGDVIAPNTPQVEVGSAFLVAGPYDDVGNEGHHHHHH
- soluble on expression in E. coli: soluble

Sequence: SNAMKLTPNFYRDRVCLNVLAGSKDNAREIYDAAEGHVLVGVLSKNYPDVASAVVDMRDYAKLIDNALSVGLGAGDPNQSAMVSEISRQVQPQHVNQVFTGVATSRALLGQNETVVNGLVSPTGTPGMVKISTGPLSSGAADGIVPLETAIALLKDMGGSSIKYFPMGGLKHRAEFEAVAKACAAHDFWLEPTGGIDLENYSEILKIALDAGVSKIIPHIYSSIIDKASGNTRPADVRQLLEMTKQLVK
- soluble on expression in E. coli: soluble

Sequence: MGSDKIHHHHHHMARVKEEADRISEQANSHIENIRRQIEQEKNDWAAEKQKLIEEAKAEGFEQGVALGKAEAMKQYAELIGQANTITEMSRKAVEDKLEDANEEIVELAVALAKKVWQQKSDDKEAFLLLVQQVINEVKEYDDISIYVDPYYYETIFQQKDEIQQLLYKECRLGIYADEKAQKGTCYIETPFGRVDASVDTQLMQLKDKLLTALEAGAAE
- soluble on expression in E. coli: not soluble

Sequence: MGSDKIHHHHHHPVAIIGGGPVGLAAAAHLAVRDVPFVLFEGKSEVGASILEWKHVSLFSPWKYNIDRAAKSLLEKESWKEPAGDRLPTGEQLVRDYLQPLAETKALKPYIYTNAPVQSIYRKGIDKIKDHNRENTPFIIRYKQDNDQKTLRARAVIDATGTWFSPNPIGAGGVPAIGEEEAKDSIYYGIPDVKGKDRSRYEGKTILVVGSGHSAIHTLLDLAQLKEAAPSTRILWAIRRNSPNGLFGGGQEDALPARGQLGLALEALLSKQKVELISSFEMEQIDRVEGRLSVVGVQNESPISLPLVDEIVANTGARPTVDYHRDIRYQLDSKLESVPALAPLIDPNIHSCGTVRPHGEKELRQPEKNFYIAGVKSYGRAPTFLLATGYEQVRSIVASLAGSKKEAERVELQLPKTGVCKSDFLAKRSCC
- soluble on expression in E. coli: not soluble

Sequence: MGSDKIHHHHHHMKVMKDYKLMAVGQIVADCFDYAKVFNKYGIDFCCNGDVSLADACGKMGIDADCLLEELKQIKSEQSLTLDFKSWPIDLLVDYILKFHHRNIRYQGPQILQLLDRVCEAHAGKHPELYEVRELFQESWIDLNNHLTKEEMVLFPYIYDLFDAVAQHRPIPAFHCGSVSSPISVMMSEHDAEGERFRRISGLTHGYLVPGDACSSYRLLLEMLRTFEDNLHHHIHLENNIVFPKAIELQENCE
- soluble on expression in E. coli: not soluble

Sequence: MNDDALPVHSTDLLDFDEDFIKIDAAICEYDSVGHAPQRKGESAFQWASVETACLALLKKAKDVRVAIWYLRACIARRGLSGLADGVRLLAELMSAPVEELHPRALPDESPGETLLIHLGWLAGPQFLHQLGSSRFEDRDATLNDLIGGRAAAIVEDRDYCVRANTLVHDIKDSLSRIRESVAVVEQELNLSRSLDLLSVAASRLARTDAGRAESESVAGEKPAHAEAGFSPAPDPQQPAAGPGGALRSRQEVGVALERIVEYFRLHEPSHPAPIFLSRIQRMLGAGFEEVMAELYPEAASLVAQLNRPQSSIK
- soluble on expression in E. coli: not soluble

Sequence: MSLKGSEVITKFSKVDTIMFDKTGTLTYGDPRVSQVKKYGQGQLAEQLLVSVEKESAHPLAKAITGYYEDLEAEEVEASRVLQGGGIVAQVAGQQVLVGNRYLLDQYHVLVTKEMERDMEELASAGNSLVLVAVNGQLELALGLKDEIRAGVKEDLAALKKQGVKNLLLLSGDNQKTVDLVAEELGPTEAYGQLLPEDKAEFVKKRQAAGEIVAFVGDGINDSPSLARADIGIAMGSGTDVAIETSNVVLMNGSFDRIPRALALAKATRRNMIENEGHHHHHH
- soluble on expression in E. coli: soluble

Sequence: MGSDKIHHHHHHMNIQDLRYFHELVNLKSYTKTAEKFGVSQPTITAAVKRLENRFGGTFLIRDQPHKSIIITRLGVQFDEHVQSILNEINIVEEEIKQNQNASIPFGLPPIIGRNYFPKIVSQLFAKGLLHRLNVIENGSYDLYHLLLEGYINFSMLGLTKVNVEPGIKLEVVKSYPMCIVVSKTHPLATKKAISFKEIANENFIGLSSDYIHTKALDRMLKKSKINLNTIYRSPDVTVVKNIVAQNLGISYLTTLSITENDDVISIPLLDKDQPKFILAAATRENHIMTDAEEEFWEILTQISLRRQVLTSTLPS
- soluble on expression in E. coli: not soluble

Sequence: MGHHHHHHHHHHSSGHIEGRHMILLEKTQEKKINDKEELIVKEEVETNWDYGCNPYERKIEDLIKYGVVVVDKPRGPTSHEVSTWVKKILNLDKAGHGGTLDPKVTGVLPVALERATKTIPMWHIPPKEYVCLMHLHRDASEEDILRVFKEFTGRIYQRPPLKAAVKRRLRIRKIHELELLDKDGKDVLFRVKCQSGTYIRKLCEDIGEALGTSAHMQELRRTKSGCFEEKDAVYLQDLLDAYVFWKEDGDEEELRRVIKPMEYGLRHLKKVVVKDSAVDAICHGADVYVRGIAKLSKGIGKGETVLVETLKGEAVAVGKALMNTKEILNADKGVAVDVERVYMDRGTYPRMWKRKK
- soluble on expression in E. coli: soluble
